Assay results from the supplement of paper PMC9112550, “Optimization of the antimicrobial peptide Bac7 by deep mutational scanning” (BMC Biology, 2022).

System: Escherichia coli TOP10
Test: shrunken log2 fold change of peptide-encoding DNA abundance (4.5 h post-induction vs induction); higher = less antimicrobial activity (less host growth inhibition)
Details: time post-induction: 4.5 h; library: site-saturation at positions 5, 18, 19, 20
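Further: peptides expressed intracellularly from a pBAD plasmid library in pooled LB shake-flask culture, induced with 0.3% L-arabinose, DNA abundance read by NGS, three biological replicates, DESeq2 with apeglm shrinkage.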

| Sequence | shrunken log2 fold change |
| --- | --- |
| RRIRDRPPRLPRPRPRPLGQPRP | 0.0401 |
| RRIRNRPPRLPRPRPRPWFNPRP | -0.448 |
| RRIRWRPPRLPRPRPRPQHPPRP | 0.0134 |
| RRIRMRPPRLPRPRPRPAKCPRP | 0.147 |
| RRIRQRPPRLPRPRPRPPIAPRP | 0.104 |
| RRIRQRPPRLPRPRPRPTWNPRP | -0.0697 |
| RRIRRRPPRLPRPRPRPKVKPRP | -0.0947 |
| RRIRMRPPRLPRPRPRPMHGPRP | -0.0683 |
| RRIRARPPRLPRPRPRPACLPRP | 0.347 |
| RRIRNRPPRLPRPRPRPQLNPRP | -0.539 |
| RRIRFRPPRLPRPRPRPEYVPRP | -0.15 |
| RRIRPRPPRLPRPRPRPRCCPRP | 0.119 |
| RRIRIRPPRLPRPRPRPHHVPRP | -0.091 |
| RRIRKRPPRLPRPRPRPMLIPRP | 0.0347 |
| RRIRERPPRLPRPRPRPRVLPRP | 0.161 |
| RRIRSRPPRLPRPRPRPYSVPRP | -0.582 |
| RRIRCRPPRLPRPRPRPRRTPRP | 0.54 |
| RRIRERPPRLPRPRPRPDEAPRP | 0.323 |
| RRIRWRPPRLPRPRPRPQILPRP | -0.164 |
| RRIRSRPPRLPRPRPRPIVCPRP | 0.0317 |
| RRIRPRPPRLPRPRPRPRPQPRP | 0.634 |
| RRIRSRPPRLPRPRPRPNKRPRP | -0.174 |
| RRIRERPPRLPRPRPRPQDKPRP | -0.0918 |
| RRIRCRPPRLPRPRPRPFQMPRP | -0.423 |
| RRIRDRPPRLPRPRPRPMWSPRP | -0.0459 |

| Sequence | shrunken log2 fold change |
| --- | --- |
| RRIRIRPPRLPRPRPRPLPNPRP | -0.217 |
| RRIRSRPPRLPRPRPRPIVKPRP | -0.143 |
| RRIRNRPPRLPRPRPRPAYVPRP | -0.0369 |
| RRIRNRPPRLPRPRPRPRQPPRP | 0.428 |
| RRIRYRPPRLPRPRPRPSVQPRP | -0.065 |
| RRIRYRPPRLPRPRPRPNTEPRP | -0.0461 |
| RRIRARPPRLPRPRPRPESNPRP | 0.553 |
| RRIRFRPPRLPRPRPRPAVKPRP | -0.137 |
| RRIRYRPPRLPRPRPRPRCTPRP | -0.407 |
| RRIRLRPPRLPRPRPRPHSGPRP | -0.0238 |
| RRIRFRPPRLPRPRPRPHHHPRP | -0.678 |
| RRIRLRPPRLPRPRPRPNMWPRP | -0.235 |
| RRIRFRPPRLPRPRPRPNEFPRP | -0.0262 |
| RRIRFRPPRLPRPRPRPGWPPRP | 0.489 |
| RRIRLRPPRLPRPRPRPPACPRP | 0.448 |
| RRIRSRPPRLPRPRPRPLEEPRP | 0.411 |
| RRIRGRPPRLPRPRPRPQSWPRP | 0.445 |
| RRIRVRPPRLPRPRPRPYKMPRP | -0.428 |
| RRIRKRPPRLPRPRPRPWGMPRP | 0.142 |
| RRIRIRPPRLPRPRPRPFMGPRP | -0.438 |
| RRIRARPPRLPRPRPRPKFGPRP | 0.581 |
| RRIRERPPRLPRPRPRPEPRPRP | 0.379 |
| RRIRIRPPRLPRPRPRPHWIPRP | -0.157 |
| RRIRVRPPRLPRPRPRPHYEPRP | -0.173 |
| RRIRNRPPRLPRPRPRPMMAPRP | -0.106 |

| Sequence | shrunken log2 fold change |
| --- | --- |
| RRIRPRPPRLPRPRPRPHKLPRP | -0.109 |
| RRIRARPPRLPRPRPRPINFPRP | 0.0601 |
| RRIRYRPPRLPRPRPRPWKVPRP | -0.498 |
| RRIRWRPPRLPRPRPRPACAPRP | 0.766 |
| RRIRERPPRLPRPRPRPYKEPRP | -0.117 |
| RRIRTRPPRLPRPRPRPSWWPRP | 0.125 |
| RRIRLRPPRLPRPRPRPRWNPRP | -0.0729 |
| RRIRHRPPRLPRPRPRPLLQPRP | 0.112 |
| RRIRYRPPRLPRPRPRPGQEPRP | -0.0317 |
| RRIRRRPPRLPRPRPRPIWHPRP | 0.176 |
| RRIRIRPPRLPRPRPRPFRNPRP | -0.902 |
| RRIRSRPPRLPRPRPRPTTQPRP | 0.22 |
| RRIRNRPPRLPRPRPRPPMWPRP | -0.115 |
| RRIRWRPPRLPRPRPRPWTLPRP | -0.0248 |
| RRIRTRPPRLPRPRPRPNYYPRP | -0.66 |
| RRIRIRPPRLPRPRPRPSCSPRP | -0.83 |
| RRIRKRPPRLPRPRPRPRGNPRP | 0.258 |
| RRIRDRPPRLPRPRPRPYNCPRP | -0.0352 |
| RRIRCRPPRLPRPRPRPHYNPRP | -1.32 |
| RRIRPRPPRLPRPRPRPDNCPRP | -0.197 |
| RRIRWRPPRLPRPRPRPVMWPRP | 0.236 |
| RRIRGRPPRLPRPRPRPNSAPRP | 0.749 |
| RRIRVRPPRLPRPRPRPCSWPRP | -0.109 |
| RRIRDRPPRLPRPRPRPMLFPRP | -0.0792 |
| RRIRFRPPRLPRPRPRPLKAPRP | 0.693 |

| Sequence | shrunken log2 fold change |
| --- | --- |
| RRIRCRPPRLPRPRPRPKIGPRP | 0.0398 |
| RRIRTRPPRLPRPRPRPFTYPRP | -0.00136 |
| RRIRRRPPRLPRPRPRPQTGPRP | 0.0354 |
| RRIRHRPPRLPRPRPRPVWYPRP | 0.00395 |
| RRIRRRPPRLPRPRPRPYTGPRP | -0.126 |
| RRIRMRPPRLPRPRPRPVLNPRP | -0.232 |
| RRIRWRPPRLPRPRPRPHVHPRP | -0.126 |
| RRIRWRPPRLPRPRPRPHDHPRP | -0.152 |
| RRIRSRPPRLPRPRPRPFAHPRP | 0.0573 |
| RRIRQRPPRLPRPRPRPQKRPRP | -0.354 |
| RRIRKRPPRLPRPRPRPEVWPRP | 0.951 |
| RRIRRRPPRLPRPRPRPMMFPRP | 0.284 |
| RRIRLRPPRLPRPRPRPMHDPRP | -0.134 |
| RRIRLRPPRLPRPRPRPTKFPRP | -0.0571 |
| RRIRTRPPRLPRPRPRPPEYPRP | 0.0238 |
| RRIRTRPPRLPRPRPRPLTTPRP | -0.0573 |
| RRIRHRPPRLPRPRPRPALDPRP | -0.103 |
| RRIRDRPPRLPRPRPRPREHPRP | -0.118 |
| RRIRWRPPRLPRPRPRPIHNPRP | -0.458 |
| RRIRDRPPRLPRPRPRPGKLPRP | 0.0495 |
| RRIRDRPPRLPRPRPRPNWSPRP | -0.0955 |
| RRIRTRPPRLPRPRPRPVCVPRP | 0.182 |
| RRIRARPPRLPRPRPRPRPNPRP | 0.493 |
| RRIRERPPRLPRPRPRPEHSPRP | -0.312 |
| RRIRARPPRLPRPRPRPQNIPRP | -0.56 |

| Sequence | shrunken log2 fold change |
| --- | --- |
| RRIRERPPRLPRPRPRPSSEPRP | -0.137 |
| RRIRKRPPRLPRPRPRPQGFPRP | -0.00783 |
| RRIRIRPPRLPRPRPRPQIEPRP | -0.0116 |
| RRIRRRPPRLPRPRPRPLEWPRP | 0.266 |
| RRIRRRPPRLPRPRPRPLSRPRP | 0.0601 |
| RRIRDRPPRLPRPRPRPFRTPRP | -0.0508 |
| RRIRARPPRLPRPRPRPPVHPRP | 0.516 |
| RRIRSRPPRLPRPRPRPFNFPRP | -0.112 |
| RRIRARPPRLPRPRPRPICDPRP | 0.497 |
| RRIRSRPPRLPRPRPRPYHTPRP | -0.652 |
| RRIRNRPPRLPRPRPRPFYPPRP | -0.5 |
| RRIRPRPPRLPRPRPRPPRFPRP | 0.557 |
| RRIRIRPPRLPRPRPRPYWGPRP | -0.151 |
| RRIRVRPPRLPRPRPRPSMYPRP | 0.531 |
| RRIRSRPPRLPRPRPRPPPMPRP | 0.817 |
| RRIRLRPPRLPRPRPRPHACPRP | 0.0658 |
| RRIRLRPPRLPRPRPRPQHGPRP | -0.0844 |
| RRIRMRPPRLPRPRPRPSTYPRP | -0.347 |
| RRIRYRPPRLPRPRPRPIQCPRP | -0.0422 |
| RRIRHRPPRLPRPRPRPRRRPRP | 0.0874 |
| RRIRERPPRLPRPRPRPEPAPRP | 0.428 |
| RRIRIRPPRLPRPRPRPEVAPRP | 0.218 |
| RRIRVRPPRLPRPRPRPQGWPRP | 0.522 |
| RRIRKRPPRLPRPRPRPFISPRP | -0.113 |
| RRIRNRPPRLPRPRPRPNYHPRP | -0.801 |

| Sequence | shrunken log2 fold change |
| --- | --- |
| RRIRARPPRLPRPRPRPLPFPRP | -0.249 |
| RRIRDRPPRLPRPRPRPQRTPRP | 0.0905 |
| RRIRGRPPRLPRPRPRPLYFPRP | -0.131 |
| RRIRWRPPRLPRPRPRPREIPRP | 0.426 |
| RRIRWRPPRLPRPRPRPQLGPRP | 0.276 |
| RRIRLRPPRLPRPRPRPVMSPRP | -0.152 |
| RRIRYRPPRLPRPRPRPVAAPRP | 0.149 |
| RRIRRRPPRLPRPRPRPLFPPRP | 0.0907 |
| RRIRARPPRLPRPRPRPKKKPRP | 0.119 |
| RRIRQRPPRLPRPRPRPEQNPRP | -0.012 |
| RRIRNRPPRLPRPRPRPMRLPRP | 0.286 |
| RRIRWRPPRLPRPRPRPYYTPRP | -0.899 |
| RRIRPRPPRLPRPRPRPRSKPRP | -0.149 |
| RRIRFRPPRLPRPRPRPFETPRP | -0.158 |
| RRIRDRPPRLPRPRPRPSTNPRP | -0.16 |
| RRIRMRPPRLPRPRPRPHMMPRP | -0.135 |
| RRIRCRPPRLPRPRPRPSDKPRP | -0.207 |
| RRIRTRPPRLPRPRPRPYMRPRP | -0.48 |
| RRIRDRPPRLPRPRPRPCAYPRP | 0.297 |
| RRIRIRPPRLPRPRPRPMQMPRP | -0.52 |
| RRIRKRPPRLPRPRPRPMQGPRP | -0.00992 |
| RRIRIRPPRLPRPRPRPVAQPRP | -0.103 |
| RRIRYRPPRLPRPRPRPCCKPRP | 0.0599 |
| RRIRDRPPRLPRPRPRPFRWPRP | 0.317 |
| RRIRVRPPRLPRPRPRPRWEPRP | 0.329 |
